Target: human NPY2 receptor on HEK293/hNPY2R cells (human) (UniProt P49146)
Test: cell-based or functional assay

IC50 value of the cAMP assay (inhibition of Forskolin stimulated cAMP accumulation in HEK293/hNPY2R cells): 0.012 nM
Substance: PYY(3-36) (peptide)

From US20130280279A1, “PHARMACEUTICAL COMPOSITION OF A COMPLEX OF AN ANTI-DIG ANTIBODY AND DIGOXIGENIN THAT IS CONJUGATED TO A PEPTIDE” (HOFFMANN-LA ROCHE INC., priority 2011, published 2013)
